In patent US20210030885A1, “HUMANIZED ANTI-LIV1 ANTIBODIES FOR THE TREATMENT OF CANCER” (priority 2019, published 2021):

Experiment: Chemical and physical stability of the reconstituted drug product
Type: physicochemical
Conditions: at 2-8° C. and at room temperature
Description: When reconstituted with 8.8 mL Water for Injection (WFI), US Pharmacopeia (USP), the concentration of reconstituted LV product is 5 mg/mL. The reconstituted drug product is a clear to slightly opalescent, colorless to light yellow solution with no visible particulate matter. The pH is approximately 6.0. The reconstituted solution is subsequently diluted in sterile 0.9% Sodium Chloride for Injection, USP, for IV administration.
If not used immediately, the in-use storage should not be longer than 24 hours under refrigeration at 2-8° C. The prepared dosing solution (reconstituted drug product solution and saline dilution in an IV bag or polypropylene syringe) should be administered within 8 hours after exposing to ambient temperature and light condition.

ladiratuzumab vedotin [LV]
Chemical and physical stability of the reconstituted drug product demonstrated for: 24 h
